A word on the koff: it is a measure of how fast the partners let go of each other. By kon is commonly meant the second-order rate constant of association. In general, stoichiometry N refers to the number of molecules, sites or subunits per partner or assembly.

In PMC4882459 one finds koff, kon and stoichiometry N data, which are given here for one substance.

Experiment [1] concerns the target Biotinylated C-reactive protein (human) (UniProt P02741). The experiment in a line: SPR; Biacore 3000; biotinylated CRP or SAP captured to 200 RU on streptavidin on a CM5 chip; ES-62 flowed at 30 ul/min in HBS pH 7.4 with 1 mM CaCl2 and 0.005% P20; regeneration with 3 mM EDTA; ka and kd calculated separately.
In experiment [2] the target is ES-62 (Acanthocheilonema viteae). As to the kind of experiment: SEC; HPLC on a G4000SW column in HBSC buffer (1 mM CaCl2); ES-62 injected, with or without CRP at 20 ug/ml in the column buffer, or with EDTA.

Sequence of Biotinylated C-reactive protein (human) (P02741 19-224): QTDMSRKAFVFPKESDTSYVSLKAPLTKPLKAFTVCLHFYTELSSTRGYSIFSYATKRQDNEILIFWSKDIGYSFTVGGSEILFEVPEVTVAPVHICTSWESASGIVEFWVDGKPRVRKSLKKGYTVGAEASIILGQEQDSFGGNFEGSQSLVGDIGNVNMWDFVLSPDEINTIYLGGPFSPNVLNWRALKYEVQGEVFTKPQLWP

In the case of ES-62 (natural protein), in experiment [1], the koff is 0.0013 to 0.0014 s⁻¹ and the kon was 100000 to 1e+06 M⁻¹ s⁻¹. The substance further registered a stoichiometry N in experiment [2] of 4.
